According to article PMC8034652 (Nucleic Acids Research, 2021):

Target: the molecule itself
Assay: native gel or EMSA

B1: FOXO1 R225A mutant (domain or fragment)
chain: KSSSSRRNAWGNLSYADLITKAIESSAEKRLTLSQIYEWMVKSVPYFKDKGDSNSSAGWKNSIRHNLSLHSKFIAVQNEGTGKSSWWMLNPEGGKSGKSPRRRAASMDNNSKFAKS
B1: binds.

B2: FOXO1 Q227A mutant (domain or fragment)
chain: KSSSSRRNAWGNLSYADLITKAIESSAEKRLTLSQIYEWMVKSVPYFKDKGDSNSSAGWKNSIRHNLSLHSKFIRVANEGTGKSSWWMLNPEGGKSGKSPRRRAASMDNNSKFAKS
B2: binds.
